The results in this text go back to article PMC8213676, “OsJAZ11 regulates phosphate starvation responses in rice”.

The target of the series is OsPHR2-6XHIS (Oryza sativa, UniProt Q6Z156 1-426). In words: EMSA; 0.7 ug protein, 50 ng probe; 15 mM HEPES pH 8.0, 30 mM KCl, 1 mM MgCl2, 0.2 mM EDTA, 0.02 mM DTT, 0.6% glycerol, 1 ug poly(dI-dC) in 20 ul, 20 °C 30 min (1 h with 15 mM NaH2PO4 for inhibition assay); gel 0.5X TBE at 4 °C. To be noted: protein: recombinant; tags: 6xHis (pET28a); chain copies: 2; label: DIG 3' end; blunt. Background: In EMSA bound probe runs differently from free probe, usually more slowly.
Chain of OsPHR2-6XHIS (Q6Z156 whole entry): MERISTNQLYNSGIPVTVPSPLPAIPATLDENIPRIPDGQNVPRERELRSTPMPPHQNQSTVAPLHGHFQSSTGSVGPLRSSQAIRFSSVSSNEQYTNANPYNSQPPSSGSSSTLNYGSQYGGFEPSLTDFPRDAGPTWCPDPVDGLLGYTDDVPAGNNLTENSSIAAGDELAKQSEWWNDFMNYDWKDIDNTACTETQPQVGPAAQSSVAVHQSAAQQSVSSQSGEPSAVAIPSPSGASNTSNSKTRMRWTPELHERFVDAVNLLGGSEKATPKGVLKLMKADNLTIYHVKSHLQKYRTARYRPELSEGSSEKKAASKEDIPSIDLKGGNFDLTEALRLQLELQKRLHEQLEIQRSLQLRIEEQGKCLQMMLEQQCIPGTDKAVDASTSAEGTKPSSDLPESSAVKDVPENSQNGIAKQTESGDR

B1: OsSPX2 promoter P1BS probe (dsDNA)
DNA 1: TATCCCCGTCACGAATATTCCTCTTCCTCC
DNA 2: GGAGGAAGAGGAATATTCGTGACGGGGATA
Take B1: the binding result was “binds”.
